Measurements: the RNAGym collection of RNA variant scans (doi:10.1073/pnas.2313332121)

B1: TPR t1 (parent)
chain: GACCAAUCUGCCCUCAGAGCUCGAGAACAUCUUCGGAUGCAGAGGAGGCAGGCUUCGGUGGCGCGAUAGCGCCAACGUCCUCAACCUCCAAUGCAUCCCACCACAUGAUGAUGCCUGAAGAGCCUUGGUUUUUUG

Variants of: B1
Test: polymerase ribozyme fitness, log enrichment relative to wild type (log ratio); higher = more active; in vitro selection for triplet polymerase activity
In short: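 A heterodimeric triplet polymerase ribozyme had each of its subunits mutagenized by PCR into a library, which was transcribed. One round of in vitro selection, done in triplicate, annealed each library with a biotinylated primer, its partner subunit and triplets, then incubated it frozen at −7 °C before gel excision of extended constructs, streptavidin-bead capture and RT-PCR. Fitness is the logarithm of genotype enrichment relative to wild-type enrichment, based on Illumina sequencing of inputs and outputs and inverse-variance-weighted replicate averages. A base-2 logarithm is used, and genotypes were kept only with ≥10 input reads and ≥1 read per output.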

Compared with G48A A68G, A29U U112A is higher in “polymerase ribozyme fitness (log ratio)” value: -2.51 for the first, -0.754 for the second.

Going from G69U A75U C101U G113C U129A to A6G C12A C80U G113U, the “polymerase ribozyme fitness (log ratio)” value falls from -2.36 to -3.95.

Compared with A5G C82G C97A C124A U125G, C31G G69U A91G G120A U129A is lower in “polymerase ribozyme fitness (log ratio)” value: -4.89 for the first, -6.61 for the second.

G36A A46U A83G and G42C G71U A84U are within 0.2 log units of each other in “polymerase ribozyme fitness (log ratio)” value: -3.05 for the first, -3.18 for the second.

Compared with A50C C123G, C56U C72G A83G C123U is lower in “polymerase ribozyme fitness (log ratio)” value: 0.334 for the first, -1.18 for the second.

Going from C3G G69U A90U G93A U112C to G63U U112C, the “polymerase ribozyme fitness (log ratio)” value rises from -1.26 to -0.421.

Going from U30A G71U to C8U U78C, the “polymerase ribozyme fitness (log ratio)” value rises from -4.91 to 0.388.

Compared with U32A C49G C123U, C73U C101U G122A is higher in “polymerase ribozyme fitness (log ratio)” value: -4.37 for the first, -0.395 for the second.

Compared with C12U C22G G45A C94U C99U, G120C U130G is higher in “polymerase ribozyme fitness (log ratio)” value: -4.27 for the first, 0.395 for the second.

First: U87A A108G C114A U116A
Second: C15U C64U G117U G120A
The “polymerase ribozyme fitness (log ratio)” value of the first is lower: -7.38 for the first, -1.73 for the second.

Going from U81A A91C C97A A105G C123G to C28A A43G G51U A90G G110A, the “polymerase ribozyme fitness (log ratio)” value rises from -8.06 to -4.93.

Going from G17A G127C to C4U C56A C86U, the “polymerase ribozyme fitness (log ratio)” value rises from -4.54 to -1.22.

Going from G69U C124U to G110A G113C, the “polymerase ribozyme fitness (log ratio)” value falls from 2.41 to -4.78.

First: C85A G117C
Second: C56U U116G C123U
The “polymerase ribozyme fitness (log ratio)” value of the first is lower: -5.07 for the first, -1.77 for the second.

Going from A50U G61C G122U to C72G A91C U96C C104A, the “polymerase ribozyme fitness (log ratio)” value falls from -3.51 to -4.69.

Going from C12U A29U to C56G C72A C79U G117U, the “polymerase ribozyme fitness (log ratio)” value falls from -2.12 to -4.93.

Compared with G52A U92A C98U A119U C124A, G69U C102G A119G is higher in “polymerase ribozyme fitness (log ratio)” value: -3.81 for the first, -2.01 for the second.

Going from U30C C70U G113C to C34G G61A, the “polymerase ribozyme fitness (log ratio)” value falls from -3.79 to -5.85.

Compared with C80A A95G, A95U U109G G120C is lower in “polymerase ribozyme fitness (log ratio)” value: -3.38 for the first, -5.29 for the second.

First: G128U
Second: C62A G117U
The “polymerase ribozyme fitness (log ratio)” value of the first is higher: -1.57 for the first, -3.38 for the second.

First: G65A G69A U112C
Second: C15U G61U A91G A121C U126A
The “polymerase ribozyme fitness (log ratio)” value of the first is lower: -4.9 for the first, -4.05 for the second.

First: A43U G61A C73A C88A G93A A121U
Second: G36C C56U C89G G117U
The “polymerase ribozyme fitness (log ratio)” value of the first is higher: -2.52 for the first, -7.02 for the second.

Compared with G61A A84U, C49A G61U U87C C98A is lower in “polymerase ribozyme fitness (log ratio)” value: -0.89 for the first, -3.8 for the second.

Going from C8U C49U to G19A G60A A90C, the “polymerase ribozyme fitness (log ratio)” value falls from 0.318 to -2.74.

Compared with G42C C88G C114G, C79U is higher in “polymerase ribozyme fitness (log ratio)” value: -4.43 for the first, -0.19 for the second.

Compared with C8U C28A C72A A83C G110A, G36C C64U G113U is lower in “polymerase ribozyme fitness (log ratio)” value: 1.02 for the first, -3.55 for the second.

Compared with C13G G63A G71A U112C, C56A C72G U106A is higher in “polymerase ribozyme fitness (log ratio)” value: -5 for the first, -1.22 for the second.

Compared with C12U G45U C70G U132C, C13A U55C G69C G110U is higher in “polymerase ribozyme fitness (log ratio)” value: -6.34 for the first, -4.5 for the second.

Compared with A2U C101U, C8A G110U is higher in “polymerase ribozyme fitness (log ratio)” value: -1.78 for the first, -0.434 for the second.

C86G and G48C C73A U112A G120C are within 0.2 log units of each other in “polymerase ribozyme fitness (log ratio)” value: -0.82 for the first, -0.954 for the second.

Going from U9G C76G A90C C101U to G19A C20A U59C U96A, the “polymerase ribozyme fitness (log ratio)” value falls from -1.34 to -5.13.

First: C8A G69A
Second: U9A C73U C123G U134C
The “polymerase ribozyme fitness (log ratio)” value of the first is lower: -1.52 for the first, 2.44 for the second.

First: C11G G39U C56U
Second: C11G G77A U92A U129C
The “polymerase ribozyme fitness (log ratio)” value of the first is higher: -0.805 for the first, -4.39 for the second.

First: A2U G52A C56A C82A A91G A121C
Second: A6C G58C U92G C114A U130A
The “polymerase ribozyme fitness (log ratio)” value of the first is higher: -2.84 for the first, -4.44 for the second.

First: A68G A74G C79A
Second: C40G C104A C124G
The “polymerase ribozyme fitness (log ratio)” value of the first is lower: -4.8 for the first, 0.0636 for the second.

First: A6C C11A C72G C85U U112G
Second: G71C C102G C114U C115U G120C
The “polymerase ribozyme fitness (log ratio)” value of the first is higher: -2.46 for the first, -5.82 for the second.

Going from U30C G60A to C15U C56A C72A C79G, the “polymerase ribozyme fitness (log ratio)” value falls from -1.98 to -2.96.

Compared with A91U G93C G113C G135U, G69U C123G is higher in “polymerase ribozyme fitness (log ratio)” value: -3.6 for the first, 2.28 for the second.

Going from C114U A121U to U59C G61C, the “polymerase ribozyme fitness (log ratio)” value falls from -1.32 to -3.23.

Going from G51U C123U to C28U C34A C53G C124A, the “polymerase ribozyme fitness (log ratio)” value falls from -2.12 to -4.41.

First: A50U C62A C82A
Second: C85G U96G A105U
The “polymerase ribozyme fitness (log ratio)” value of the first is higher: -1.33 for the first, -4.68 for the second.

Going from C28A C88G to G52U U129A, the “polymerase ribozyme fitness (log ratio)” value rises from -4.25 to -1.63.
